Test results published in the Human Domainome abundance scans (Beltran et al. 2025).
± gives the uncertainty stated by the source.

B1: Nuclear receptor subfamily 4 group A member 2, residues 260 to 336; numbered along this chain, P43354 (parent)
chain: EGLCAVCGDNAACQHYGVRTCEGCKGFFKRTVQKNAKYVCLANKNCPVDKRRRNRCQYCRFQKCLAVGMVKEVVRTD

Variants of: B1
Test: abundance fitness (aPCA) (normalised: wild type 0, dead -1); higher = more abundant; growth selection in yeast, the domain comes from the species named
Settings: Homo sapiens

Variant	abundance fitness
EGLCAVCGDNAACQHYGVRTCEGCKGFFKRTVQKNAKYVCLANKNCPVDKRRRNRCQYCRFQKCLFVGMVKEVVRTD	-0.228 ± 0.14
EGLCAVCGDNAACQHYGVRTCEGCKGFFKRTVQKNAKYVCLANKNCPVDKRRRNRCQYCRFQKCLAVGMVKAVVRTD	-0.133 ± 0.11
EGLCAVCGDNAACQKYGVRTCEGCKGFFKRTVQKNAKYVCLANKNCPVDKRRRNRCQYCRFQKCLAVGMVKEVVRTD	-0.101 ± 0.25
EGLCAVCGDNAACQEYGVRTCEGCKGFFKRTVQKNAKYVCLANKNCPVDKRRRNRCQYCRFQKCLAVGMVKEVVRTD	-0.106 ± 0.091
EGLCAVCGDNAACQHYGVRTCEGCKGFFWRTVQKNAKYVCLANKNCPVDKRRRNRCQYCRFQKCLAVGMVKEVVRTD	-0.253 ± 0.19
EGLCAVCGDNAACQHYGVRTCEGCKGFFSRTVQKNAKYVCLANKNCPVDKRRRNRCQYCRFQKCLAVGMVKEVVRTD	0.121 ± 0.11
EGLCAVCGDNAACQHYGVRTCEGCKGFFKRTVQKNAKYVCLANKNCPVDKRRRNRCQYCRFQKCLAVGMVLEVVRTD	-0.078 ± 0.058
EGLCAVCGDNAACQHYGVRTCEGCKGFFKRTVQKNAKYVCLANKNCPVDKRRRNRCQYCRFQKCLAVGMVFEVVRTD	-0.258 ± 0.088
EGLCAVCGDNAACQHYGVRTCEGCKGFFKRTVQKNAKYVCLANKNCPVDKRRRNRCQYCRFQKCLAVGMVEEVVRTD	-0.046 ± 0.084
EGLCAVCGDNAACQHGGVRTCEGCKGFFKRTVQKNAKYVCLANKNCPVDKRRRNRCQYCRFQKCLAVGMVKEVVRTD	-0.01 ± 0.07
EGLCAVCGDNAACQHIGVRTCEGCKGFFKRTVQKNAKYVCLANKNCPVDKRRRNRCQYCRFQKCLAVGMVKEVVRTD	-0.432 ± 0.38
EGLCAVCGDNAACQHYGVRTCEGCKGFFKRTVQKNAKYVCLANKNCPVDKRRRNRCQYCRFQWCLAVGMVKEVVRTD	-0.569 ± 0.078
EGLCAVCGDNAACQHYGVRTCEGCKGFFKRTVQKNAKYVCLANKNCPVDKRRRNRCQYCRFQACLAVGMVKEVVRTD	-0.048 ± 0.095
EGLCAVCGDNAACQHYGVRTCEGCKGFFKRTVQKNAKYVCLANKNCPVDKRRRNRCQYCRTQKCLAVGMVKEVVRTD	-0.377 ± 0.21
EGLCAVCGDNAACQHYGVRTCEGCKGFFKRTVQKNAKYVCLANKNCPVDKRRRNRCQYCRFQKCLAVGMVKEVVGTD	0.033 ± 0.031
EGLCAVCGDNAACQHYGVRTCEGCKGFFKRTVQKNAKYVCLANKNCPVDKRRRNRCQYCRFQKCLAVGMVKEVVNTD	0 ± 0.39
EGLCAVCGDNAACQHYGVRTCGGCKGFFKRTVQKNAKYVCLANKNCPVDKRRRNRCQYCRFQKCLAVGMVKEVVRTD	-0.142 ± 0.058
EGLCAVCGDNAACQHYGVRTCEGCKGFFKRTVQKNAKYVCLANKNCPVDKRRRNRCQYCRFQKCLAVGMVKEVCRTD	-0.098 ± 0.071

Variant	abundance fitness
EGLCAVCGDNAACQHYGVRTCEGCKGFFKRTVQKNAKYVCLANKNCPVDKRRRNRCQYCRFQKCLAVGMVKEVFRTD	-0.148 ± 0.13
EGLCAVCGDNAACQHYGGRTCEGCKGFFKRTVQKNAKYVCLANKNCPVDKRRRNRCQYCRFQKCLAVGMVKEVVRTD	-0.112 ± 0.07
EGLCAVCGDNAACQHYGVRTCEGCKGFFKRTVQKNAKYVCLANKNCPVDKRRRNMCQYCRFQKCLAVGMVKEVVRTD	-0.089 ± 0.12
EGLCAVCGDNAACQHYGVRTCEGCKGFFKRTVQKNAKYVCLANKNCPVDKRRRNCCQYCRFQKCLAVGMVKEVVRTD	-0.028 ± 0.076
EGLCAVCGDNAACQHYGVRTCEGCKGFFKRTVQKNAKYVCLANKNCPVDKRRRNRCQYCRFQKCLAVIMVKEVVRTD	-0.481 ± 0.28
EGLCAVCGDNAACQHYGVRTCEGCKGFFKRTVQKNAKYVCLANKNCPVDKRRRNRCQYCRFQKCLAVLMVKEVVRTD	-0.589 ± 0.11
EGLCAVCGDNAACQHYGVRTCEGCKGFFKRTVQKSAKYVCLANKNCPVDKRRRNRCQYCRFQKCLAVGMVKEVVRTD	-0.198 ± 0.085
EGLCAVCGDNAACQHYGVRTCEGCKGFFKRTVQKQAKYVCLANKNCPVDKRRRNRCQYCRFQKCLAVGMVKEVVRTD	-0.081 ± 0.1
EGLCAVCGDNAACQHYGVRTCEGCKGFFKRTVQKNAKYVCLANKNCPVDKRRRNRCQYCRFQKCLAVGMVKEVVRYD	0.168 ± 0.13
EGLCAVCGDNAACQHYGVRTCEGCKGFFKRTVQKNAKYVCLANKNCPVDKRRRNRCQYCRFQKCLAVGMVKEVVRDD	0.098 ± 0.098
EGLCAVCGDNAACQHYGVRTCEGCKGFFKRTVQKNAKYVCLANKNCPVDKRRRNRCQYCRFQKCLAVGMVKEVVRPD	-0.004 ± 0.37
EGLCAVCGDNAACQHYGVRTCEGCKGFFKRTVQKNAKYVCLANKNCPVDKRRRNRCQYCRFQKCLAVGMVKEVVRMD	-0.166 ± 0.17
EGLCAVCGDNAACQHYGVRTCEGCKGFFKRTVQKNAKYVCLANKNCPVDKRRRNRCQYCRFQKCLAWGMVKEVVRTD	-0.706 ± 0.098
EGLCAVCGDNAACQHYGVRTCEGCKGFFKRTVQKNAKYVCLANKNCPVDKRRRNRCQYCRFQKCLATGMVKEVVRTD	-0.06 ± 0.14
EGLCAVCGDNAACQHYGVRTCEGCKGFFKRTVQKNAKYVCLANKNCPVDKRRRNRCQYCRFQKCLAMGMVKEVVRTD	-0.035 ± 0.15
EGLCAVCGDNAACQHYGVRTCEGCKGFFKRTVQKNAKYVCLANKNCPVDKRRRNRCQYCRFQKCLARGMVKEVVRTD	-0.134 ± 0.073
EGLCAVCGDNAACQHYVVRTCEGCKGFFKRTVQKNAKYVCLANKNCPVDKRRRNRCQYCRFQKCLAVGMVKEVVRTD	-0.364 ± 0.14
